Results as given in the Immune Epitope Database (IEDB).
pKd: −log10 of the molar value.

Key:
HLA-B*51:01 = assay: IEDB peptide-MHC binding, purified MHC/competitive/radioactivity; filed as Kd, often an IC50 or EC50 that approximates it; ≥ and ≤ were set here for values at or beyond the usual limits of such assays
HLA-B*08:01 [1] = assay: as above
HLA-A*02:03 = assay: as above; conditions: source organism: Dengue virus 4 Philippines/H241/1956
HLA-A*02:01 [2] = assay: as above
HLA-B*15:01 [3] = assay: IEDB peptide-MHC binding, purified MHC/competitive/fluorescence; filed as Kd, often an IC50 or EC50 that approximates it; ≥ and ≤ were set here for values at or beyond the usual limits of such assays; conditions: source organism: Bacillus anthracis str. A0488
HLA-B*53:01 = assay: IEDB peptide-MHC binding, purified MHC/competitive/radioactivity; filed as Kd, often an IC50 or EC50 that approximates it; ≥ and ≤ were set here for values at or beyond the usual limits of such assays
HLA-B*44:02 = assay: as above; conditions: source organism: Dengue virus 3 Martinique/1243/1999
HLA-A*26:01 [4] = assay: as above
HLA-A*26:01 [5] = assay: IEDB peptide-MHC binding, purified MHC/direct/fluorescence; filed as Kd, often an IC50 or EC50 that approximates it; ≥ and ≤ were set here for values at or beyond the usual limits of such assays
HLA-B*35:01 = assay: IEDB peptide-MHC binding, purified MHC/competitive/radioactivity; filed as Kd, often an IC50 or EC50 that approximates it; ≥ and ≤ were set here for values at or beyond the usual limits of such assays
HLA-A*26:01 [6] = assay: IEDB peptide-MHC binding, purified MHC/competitive/fluorescence; filed as Kd, often an IC50 or EC50 that approximates it; ≥ and ≤ were set here for values at or beyond the usual limits of such assays; conditions: source organism: Actinobacillus pleuropneumoniae serovar 1 str. 4074
HLA-B*58:01 = assay: IEDB peptide-MHC binding, purified MHC/direct/fluorescence; filed as Kd, often an IC50 or EC50 that approximates it; ≥ and ≤ were set here for values at or beyond the usual limits of such assays; conditions: source organism: SARS-CoV1
HLA-B*08:01 [7] = assay: as above; conditions: source organism: SARS-CoV1
HLA-B*15:01 [8] = assay: as above; conditions: source organism: SARS-CoV1
HLA-B*07:02 = assay: as above; conditions: source organism: SARS-CoV1
HLA-B*40:01 = assay: as above; conditions: source organism: SARS-CoV1
HLA-A*11:01 = assay: as above; conditions: source organism: SARS-CoV1
HLA-B*27:05 = assay: as above; conditions: source organism: Tacaribe virus strain V7
HLA-A*02:01 [9] = assay: as above; conditions: source organism: SARS-CoV1
HLA-A*01:01 = assay: as above; conditions: source organism: SARS-CoV1
HLA-A*31:01 = assay: as above; conditions: source organism: SARS-CoV1
HLA-A*03:01 = assay: as above; conditions: source organism: SARS-CoV1
HLA-A*29:02 = assay: IEDB peptide-MHC binding, purified MHC/competitive/radioactivity; filed as Kd, often an IC50 or EC50 that approximates it; ≥ and ≤ were set here for values at or beyond the usual limits of such assays; conditions: source organism: SARS coronavirus Tor2
HLA-A*23:01 = assay: as above; conditions: source organism: SARS coronavirus Tor2
HLA-A*30:02 = assay: as above; conditions: source organism: SARS coronavirus Tor2
HLA-A*24:02 = assay: as above; conditions: source organism: SARS coronavirus Tor2
[10] = source organism: Dengue virus 4 Philippines/H241/1956
[11] = source organism: Vaccinia virus WR
[12] = source organism: Lassa virus Josiah
[13] = source organism: Dengue virus 3 Martinique/1243/1999
[14] = source organism: Dengue virus 2 Jamaica/1409/1983
[15] = source organism: Dengue virus 1 Brazil/97-11/1997

Q: WPLNEGIMAV was tested. Which pKd (HLA-B*51:01; source organism: Dengue virus 1 Singapore/S275/1990) did it give?
A: 6.52

Q: Which results are given for GIMAVGLVSL?
A: pKd (HLA-B*08:01 [1]; [10]): 5.91; pKd (HLA-A*02:03): 7.62

Q: MYKSRVERV was tested. Which pKd (HLA-B*08:01 [1]; [11]) did it give?
A: 7.33

Q: How did the pKd (HLA-A*02:01 [2]; [12]) turn out when LMTLKDAML was run?
A: 6.05

Q: How did the pKd (HLA-B*15:01 [3]) turn out when RLMATKNIY was run?
A: 6.87

Q: With VKPKGKVVDL as the sequence, how does the pKd (HLA-B*08:01 [1]; [10]) read?
A: 5.67

Q: With TMYYKDVTV as the sequence, how does the pKd (HLA-A*02:01 [2]; source organism: Human alphaherpesvirus 1 strain 17) read?
A: 7.60

Q: YTALFSGVSW was tested. Which pKd (HLA-B*53:01; [13]) did it give?
A: 7.74

Q: And the pKd (HLA-B*44:02)?
A: 5.68

Q: What about the pKd (HLA-A*26:01 [4]; [13]) of the same sequence?
A: 6.04

Q: With INRKGKVIGL as the sequence, how does the pKd (HLA-B*08:01 [1]; [10]) read?
A: 5.44

Q: With MVSIQWHAM as the sequence, how does the pKd (HLA-A*26:01 [5]; source organism: Giardia lamblia ATCC 50803) read?
A: 5.43

Q: With SIFLIFSII as the sequence, how does the pKd (HLA-B*08:01 [1]; source organism: Vaccinia virus Copenhagen) read?
A: 6.07

Q: How did the pKd (HLA-B*08:01 [1]; source organism: Dengue virus 3 Singapore/8120/1995) turn out when LAKRFSRGL was run?
A: 6.02

Q: How did the pKd (HLA-A*02:01 [2]; source organism: Hepatitis B virus subtype ayw) turn out when LLGCAANWI was run?
A: ≤ 5.30

Q: IMVGNETGL was tested. Which pKd (HLA-A*02:01 [2]; [12]) did it give?
A: 5.38

Q: WALCEALTL was tested. Which pKd (HLA-B*35:01; [14]) did it give?
A: 6.19

Q: EPKISLLPL was tested. Which pKd (HLA-B*08:01 [1]; [11]) did it give?
A: 8.07

Q: NMKFKNSVE was tested. Which pKd (HLA-B*08:01 [1]; [11]) did it give?
A: 5.87

Q: How did the pKd (HLA-B*08:01 [1]; [11]) turn out when SIRYRQRLI was run?
A: 6.66

Q: DLYRMYSRY was tested. Which pKd (HLA-A*26:01 [6]) did it give?
A: 6.52

Q: How did the pKd (HLA-A*26:01 [5]; source organism: Mycobacterium tuberculosis) turn out when LVIDNLYGF was run?
A: 7.91

Q: EARKTFVEL was tested. Which pKd (HLA-B*08:01 [1]; [15]) did it give?
A: 7.01

Q: What does the source list for NQATTKTTF?
A: pKd (HLA-B*58:01): 5.03; pKd (HLA-B*08:01 [7]): 5.15; pKd (HLA-B*15:01 [8]): 6.69; pKd (HLA-B*07:02): 4.70; pKd (HLA-B*40:01): ≤ 4.24; pKd (HLA-A*11:01): ≤ 4.10

Q: With IPITAAAWYL as the sequence, how does the pKd (HLA-B*08:01 [1]; [14]) read?
A: 5.42

Q: And the pKd (HLA-B*51:01; [14])?
A: 5.21

Q: EKIIHFLTI was tested. Which pKd (HLA-B*08:01 [1]; [11]) did it give?
A: 8.30

Q: With IRELMSVPY as the sequence, how does the pKd (HLA-B*27:05) read?
A: ≤ 4.70

Q: With GPLVAGGLLI as the sequence, how does the pKd (HLA-B*51:01; [13]) read?
A: 5.22

Q: With FNKTIFLSE as the sequence, how does the pKd (HLA-B*08:01 [1]; [11]) read?
A: 6.59

Q: MSIPATLFVW was tested. Which pKd (HLA-B*53:01; [15]) did it give?
A: 6.38

Q: And the pKd (HLA-A*26:01 [4]; [15])?
A: 4.81

Q: With SIVSPFIPLL as the sequence, how does the pKd (HLA-A*02:01 [2]; source organism: Hepatitis B virus) read?
A: ≤ 4.60

Q: How did the pKd (HLA-B*35:01; [13]) turn out when IPFSTEDGQG was run?
A: 5.76

Q: How did the pKd (HLA-B*08:01 [1]; [11]) turn out when LPMLYFLYV was run?
A: 8.60

Q: Which results are given for LPAIVREAIK?
A: pKd (HLA-B*53:01; [14]): 5.33; pKd (HLA-B*51:01; [14]): ≤ 4.16; pKd (HLA-B*35:01; [14]): 5.26

Q: With RTNDWDFVV as the sequence, how does the pKd (HLA-A*02:01 [2]; source organism: dengue virus type 2) read?
A: 6.78

Q: With FMGRIRSVY as the sequence, how does the pKd (HLA-B*58:01) read?
A: 5.22

Q: And the pKd (HLA-A*02:01 [9])?
A: 5.04

Q: And the pKd (HLA-B*08:01 [7])?
A: 6.22

Q: What about the pKd (HLA-A*01:01) of the same sequence?
A: 5.23

Q: And the pKd (HLA-B*15:01 [8])?
A: 6.41

Q: What about the pKd (HLA-A*31:01) of the same sequence?
A: 6.91

Q: And the pKd (HLA-A*11:01)?
A: 4.74

Q: What about the pKd (HLA-A*03:01) of the same sequence?
A: 5.63

Q: What about the pKd (HLA-A*29:02) of the same sequence?
A: 8.77

Q: What about the pKd (HLA-A*23:01) of the same sequence?
A: ≤ 4.11

Q: What about the pKd (HLA-A*30:02) of the same sequence?
A: 9.80

Q: What about the pKd (HLA-A*26:01 [4]; source organism: SARS coronavirus Tor2) of the same sequence?
A: 5.65

Q: What about the pKd (HLA-A*24:02) of the same sequence?
A: ≤ 4.25

Q: With RNALDNLAVL as the sequence, how does the pKd (HLA-B*08:01 [1]; source organism: Dengue virus 2 16681-PDK53) read?
A: 5.19
